Here are results for 26 molecules from PMC10713552 (Communications Biology, 2023).

In this assay the target is D614G-Hexapro (WT) spike ectodomain (SARS-CoV-2 Wuhan-Hu-1 D614G, D614G). The assay can be described thus: BLI.

B1: 0304-IN3_T65G (antibody, V domains shown)
VH: QVQLQQWGPGLVNPSETLSLTCSVSGGSFATENYYWSWIRQHPGEGLEWIGNIYFSGNGYYNPSLNNRFTISFDTSKNHLSLKLPSVTAADTAVYYCARGTIYFDISGYRRVDPFHIWGQGTMVIVSS
VL: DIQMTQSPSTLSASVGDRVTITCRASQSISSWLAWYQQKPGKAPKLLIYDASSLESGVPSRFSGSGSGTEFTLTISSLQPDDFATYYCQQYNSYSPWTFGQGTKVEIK
notes: source: Expi293F, transfected
As for B1, the dissociation constant Kd was found to be 45.4 nM, the dissociation rate constant (koff) turned out to be 0.000221 s⁻¹ and the kon worked out at 4880 M⁻¹ s⁻¹.

B2: 0385-YN3_T65M (antibody, V domains shown)
VH: QVQLQQWGPGLVNPSETLSLTCSVSGGSFATENYYWSWIRQHPGEGLEWIGNIYFSGNMYYNPSLNNRFTISFDTSKNHLSLKLPSVTAADTAVYYCARGTIYFDYSGYRRVDPFHIWGQGTMVIVSS
VL: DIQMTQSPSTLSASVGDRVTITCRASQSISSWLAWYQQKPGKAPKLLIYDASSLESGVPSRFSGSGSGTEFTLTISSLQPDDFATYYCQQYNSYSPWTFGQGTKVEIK
notes: source: Expi293F, transfected
As to B2, the Kd was determined as 9.93 nM, the off-rate constant (koff) worked out at 0.00157 s⁻¹ and the kon was 158000 M⁻¹ s⁻¹.

B3: 0336-LN3_T65W (antibody, V domains shown)
VH: QVQLQQWGPGLVNPSETLSLTCSVSGGSFATENYYWSWIRQHPGEGLEWIGNIYFSGNWYYNPSLNNRFTISFDTSKNHLSLKLPSVTAADTAVYYCARGTIYFDLSGYRRVDPFHIWGQGTMVIVSS
VL: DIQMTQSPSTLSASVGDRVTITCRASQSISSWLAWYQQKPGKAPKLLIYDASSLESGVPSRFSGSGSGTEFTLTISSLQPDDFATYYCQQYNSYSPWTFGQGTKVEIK
notes: source: Expi293F, transfected
B3 displayed a Kd of 0.15 nM, a koff of 0.000117 s⁻¹ and an association rate constant (kon) of 782000 M⁻¹ s⁻¹.

B4: 0357-N3_T65A (antibody, V domains shown)
VH: QVQLQQWGPGLVNPSETLSLTCSVSGGSFATENYYWSWIRQHPGEGLEWIGNIYFSGNAYYNPSLNNRFTISFDTSKNHLSLKLPSVTAADTAVYYCARGTIYFDRSGYRRVDPFHIWGQGTMVIVSS
VL: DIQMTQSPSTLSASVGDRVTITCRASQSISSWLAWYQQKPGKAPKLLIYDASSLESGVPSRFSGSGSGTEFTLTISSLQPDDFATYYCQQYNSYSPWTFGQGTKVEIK
notes: source: Expi293F, transfected
In the case of B4, the Kd was determined as 0.562 nM, the koff worked out at 0.000124 s⁻¹ and the kon was 221000 M⁻¹ s⁻¹.

B5: 0322-LN3_T65F (antibody, V domains shown)
VH: QVQLQQWGPGLVNPSETLSLTCSVSGGSFATENYYWSWIRQHPGEGLEWIGNIYFSGNFYYNPSLNNRFTISFDTSKNHLSLKLPSVTAADTAVYYCARGTIYFDLSGYRRVDPFHIWGQGTMVIVSS
VL: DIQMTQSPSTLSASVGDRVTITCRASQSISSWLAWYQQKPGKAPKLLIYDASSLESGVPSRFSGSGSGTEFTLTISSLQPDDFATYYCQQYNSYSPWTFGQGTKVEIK
notes: source: Expi293F, transfected
The molecule B5 gave an equilibrium dissociation constant (Kd) of 2.52 nM, a dissociation rate constant (koff) of 0.000726 s⁻¹ and a kon of 288000 M⁻¹ s⁻¹.

B6: 0325-LN3_T65I (antibody, V domains shown)
VH: QVQLQQWGPGLVNPSETLSLTCSVSGGSFATENYYWSWIRQHPGEGLEWIGNIYFSGNIYYNPSLNNRFTISFDTSKNHLSLKLPSVTAADTAVYYCARGTIYFDLSGYRRVDPFHIWGQGTMVIVSS
VL: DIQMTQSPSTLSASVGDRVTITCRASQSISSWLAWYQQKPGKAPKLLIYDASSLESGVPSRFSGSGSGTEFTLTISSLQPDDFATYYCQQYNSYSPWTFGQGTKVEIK
notes: source: Expi293F, transfected
B6 had a Kd of 6.57 nM, a dissociation rate constant (koff) of 0.00131 s⁻¹ and a kon of 199000 M⁻¹ s⁻¹.

B7: 0328-LN3_T65M (antibody, V domains shown)
VH: QVQLQQWGPGLVNPSETLSLTCSVSGGSFATENYYWSWIRQHPGEGLEWIGNIYFSGNMYYNPSLNNRFTISFDTSKNHLSLKLPSVTAADTAVYYCARGTIYFDLSGYRRVDPFHIWGQGTMVIVSS
VL: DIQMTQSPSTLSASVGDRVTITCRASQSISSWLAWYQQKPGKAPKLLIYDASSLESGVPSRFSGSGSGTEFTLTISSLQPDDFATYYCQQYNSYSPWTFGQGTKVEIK
notes: source: Expi293F, transfected
In turn, B7 yielded a dissociation constant (Kd) of 2.99 nM, a koff of 0.00124 s⁻¹ and a kon of 415000 M⁻¹ s⁻¹.

B8: 0382-YN3_T65I (antibody, V domains shown)
VH: QVQLQQWGPGLVNPSETLSLTCSVSGGSFATENYYWSWIRQHPGEGLEWIGNIYFSGNIYYNPSLNNRFTISFDTSKNHLSLKLPSVTAADTAVYYCARGTIYFDYSGYRRVDPFHIWGQGTMVIVSS
VL: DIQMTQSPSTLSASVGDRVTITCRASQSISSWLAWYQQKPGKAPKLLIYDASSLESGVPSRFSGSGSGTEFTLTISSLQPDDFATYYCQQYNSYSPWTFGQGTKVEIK
notes: source: Expi293F, transfected
For B8, the Kd was found to be 2690 nM, the koff came out at 0.000811 s⁻¹ and the kon was found to be 302 M⁻¹ s⁻¹.

B9: 0321-LN3_T65E (antibody, V domains shown)
VH: QVQLQQWGPGLVNPSETLSLTCSVSGGSFATENYYWSWIRQHPGEGLEWIGNIYFSGNEYYNPSLNNRFTISFDTSKNHLSLKLPSVTAADTAVYYCARGTIYFDLSGYRRVDPFHIWGQGTMVIVSS
VL: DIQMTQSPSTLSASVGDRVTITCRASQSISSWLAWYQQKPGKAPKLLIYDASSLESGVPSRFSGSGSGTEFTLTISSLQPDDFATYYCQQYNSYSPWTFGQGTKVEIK
notes: source: Expi293F, transfected
In turn, B9 showed a Kd of 378 nM, a koff of 0.00157 s⁻¹ and a kon of 4150 M⁻¹ s⁻¹.

B10: 0323-LN3_T65G (antibody, V domains shown)
VH: QVQLQQWGPGLVNPSETLSLTCSVSGGSFATENYYWSWIRQHPGEGLEWIGNIYFSGNGYYNPSLNNRFTISFDTSKNHLSLKLPSVTAADTAVYYCARGTIYFDLSGYRRVDPFHIWGQGTMVIVSS
VL: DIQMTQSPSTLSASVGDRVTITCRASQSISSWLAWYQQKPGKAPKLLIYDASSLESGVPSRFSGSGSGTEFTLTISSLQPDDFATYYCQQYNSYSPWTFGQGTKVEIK
notes: source: Expi293F, transfected
In the case of B10, the Kd is 145 nM, the koff was determined as 0.000932 s⁻¹ and the kon turned out to be 6420 M⁻¹ s⁻¹.

B11: 0366-N3_T65M (antibody, V domains shown)
VH: QVQLQQWGPGLVNPSETLSLTCSVSGGSFATENYYWSWIRQHPGEGLEWIGNIYFSGNMYYNPSLNNRFTISFDTSKNHLSLKLPSVTAADTAVYYCARGTIYFDRSGYRRVDPFHIWGQGTMVIVSS
VL: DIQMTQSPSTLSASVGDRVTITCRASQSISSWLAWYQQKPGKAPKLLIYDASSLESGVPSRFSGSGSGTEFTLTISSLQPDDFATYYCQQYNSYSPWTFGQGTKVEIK
notes: source: Expi293F, transfected
In the case of B11, binding was characterised by a dissociation constant (Kd) of 8.15 nM, the koff came out at 2.08e-06 s⁻¹ and the association rate constant (kon) was 255 M⁻¹ s⁻¹.

B12: 0365-N3_T65L (antibody, V domains shown)
VH: QVQLQQWGPGLVNPSETLSLTCSVSGGSFATENYYWSWIRQHPGEGLEWIGNIYFSGNLYYNPSLNNRFTISFDTSKNHLSLKLPSVTAADTAVYYCARGTIYFDRSGYRRVDPFHIWGQGTMVIVSS
VL: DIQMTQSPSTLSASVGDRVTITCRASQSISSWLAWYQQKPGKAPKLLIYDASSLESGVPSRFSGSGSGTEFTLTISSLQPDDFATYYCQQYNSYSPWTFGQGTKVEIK
notes: source: Expi293F, transfected
Turning to B12, the Kd came out at 387 nM, the off-rate (koff) was 0.000123 s⁻¹ and the kon was 318 M⁻¹ s⁻¹.

B13: 0343-MN3_T65H (antibody, V domains shown)
VH: QVQLQQWGPGLVNPSETLSLTCSVSGGSFATENYYWSWIRQHPGEGLEWIGNIYFSGNHYYNPSLNNRFTISFDTSKNHLSLKLPSVTAADTAVYYCARGTIYFDMSGYRRVDPFHIWGQGTMVIVSS
VL: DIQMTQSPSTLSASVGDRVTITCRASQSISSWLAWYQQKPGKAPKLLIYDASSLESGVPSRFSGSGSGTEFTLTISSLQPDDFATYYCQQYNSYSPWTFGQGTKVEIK
notes: source: Expi293F, transfected
B13 registered a Kd of 7760 nM, a koff of 0.000643 s⁻¹ and a kon of 82.8 M⁻¹ s⁻¹.

B14: 0364-N3_T65K (antibody, V domains shown)
VH: QVQLQQWGPGLVNPSETLSLTCSVSGGSFATENYYWSWIRQHPGEGLEWIGNIYFSGNKYYNPSLNNRFTISFDTSKNHLSLKLPSVTAADTAVYYCARGTIYFDRSGYRRVDPFHIWGQGTMVIVSS
VL: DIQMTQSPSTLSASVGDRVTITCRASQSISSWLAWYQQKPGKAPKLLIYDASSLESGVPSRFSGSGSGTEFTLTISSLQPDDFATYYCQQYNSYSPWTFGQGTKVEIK
notes: source: Expi293F, transfected
B14 came in with a Kd of 288 nM, a koff of 9.92e-05 s⁻¹ and a kon of 344 M⁻¹ s⁻¹.

B15: 0375-N3_T65Y (antibody, V domains shown)
VH: QVQLQQWGPGLVNPSETLSLTCSVSGGSFATENYYWSWIRQHPGEGLEWIGNIYFSGNYYYNPSLNNRFTISFDTSKNHLSLKLPSVTAADTAVYYCARGTIYFDRSGYRRVDPFHIWGQGTMVIVSS
VL: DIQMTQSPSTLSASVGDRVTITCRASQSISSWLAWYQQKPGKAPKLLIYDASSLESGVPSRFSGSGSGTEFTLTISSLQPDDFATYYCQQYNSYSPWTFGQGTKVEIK
notes: source: Expi293F, transfected
For the molecule B15, the kon is 265 M⁻¹ s⁻¹.

B16: 0361-N3_T65G (antibody, V domains shown)
VH: QVQLQQWGPGLVNPSETLSLTCSVSGGSFATENYYWSWIRQHPGEGLEWIGNIYFSGNGYYNPSLNNRFTISFDTSKNHLSLKLPSVTAADTAVYYCARGTIYFDRSGYRRVDPFHIWGQGTMVIVSS
VL: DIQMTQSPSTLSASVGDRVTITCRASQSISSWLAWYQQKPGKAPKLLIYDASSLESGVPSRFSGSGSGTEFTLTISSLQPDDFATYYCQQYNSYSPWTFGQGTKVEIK
notes: source: Expi293F, transfected
Regarding B16, the affinity, expressed as Kd, was 549 nM; the koff amounted to 0.000177 s⁻¹; the kon came out at 323 M⁻¹ s⁻¹.

B17: 0393-YN3_T65W (antibody, V domains shown)
VH: QVQLQQWGPGLVNPSETLSLTCSVSGGSFATENYYWSWIRQHPGEGLEWIGNIYFSGNWYYNPSLNNRFTISFDTSKNHLSLKLPSVTAADTAVYYCARGTIYFDYSGYRRVDPFHIWGQGTMVIVSS
VL: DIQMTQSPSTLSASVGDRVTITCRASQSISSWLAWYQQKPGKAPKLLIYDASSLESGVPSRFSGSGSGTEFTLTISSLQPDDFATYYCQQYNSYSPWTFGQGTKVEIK
notes: source: Expi293F, transfected
Molecule B17 had a Kd of 189 nM, a koff of 0.000535 s⁻¹ and a kon of 2840 M⁻¹ s⁻¹.

B18: 0368-N3_T65P (antibody, V domains shown)
VH: QVQLQQWGPGLVNPSETLSLTCSVSGGSFATENYYWSWIRQHPGEGLEWIGNIYFSGNPYYNPSLNNRFTISFDTSKNHLSLKLPSVTAADTAVYYCARGTIYFDRSGYRRVDPFHIWGQGTMVIVSS
VL: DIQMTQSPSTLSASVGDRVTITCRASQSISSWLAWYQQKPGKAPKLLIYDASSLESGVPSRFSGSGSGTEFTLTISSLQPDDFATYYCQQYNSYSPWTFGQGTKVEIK
notes: source: Expi293F, transfected
B18 showed a dissociation constant (Kd) of 52.9 nM, a koff of 0.000253 s⁻¹ and an association rate constant (kon) of 4790 M⁻¹ s⁻¹.

B19: 0369-N3_T65Q (antibody, V domains shown)
VH: QVQLQQWGPGLVNPSETLSLTCSVSGGSFATENYYWSWIRQHPGEGLEWIGNIYFSGNQYYNPSLNNRFTISFDTSKNHLSLKLPSVTAADTAVYYCARGTIYFDRSGYRRVDPFHIWGQGTMVIVSS
VL: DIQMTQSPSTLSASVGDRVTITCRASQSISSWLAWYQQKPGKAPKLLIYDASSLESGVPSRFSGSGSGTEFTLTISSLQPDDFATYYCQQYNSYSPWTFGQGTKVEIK
notes: source: Expi293F, transfected
B19 came in with a Kd of 65.4 nM, a koff of 0.000113 s⁻¹ and a kon of 1730 M⁻¹ s⁻¹.

B20: 0320-LN3_T65D (antibody, V domains shown)
VH: QVQLQQWGPGLVNPSETLSLTCSVSGGSFATENYYWSWIRQHPGEGLEWIGNIYFSGNDYYNPSLNNRFTISFDTSKNHLSLKLPSVTAADTAVYYCARGTIYFDLSGYRRVDPFHIWGQGTMVIVSS
VL: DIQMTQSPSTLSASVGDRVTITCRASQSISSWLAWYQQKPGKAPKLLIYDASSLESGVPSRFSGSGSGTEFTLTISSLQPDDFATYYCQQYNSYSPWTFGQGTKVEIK
notes: source: Expi293F, transfected
With B20, the Kd was found to be 226 nM, the koff amounted to 0.000716 s⁻¹ and the kon was determined as 3160 M⁻¹ s⁻¹.

B21: 0390-YN3_T65S (antibody, V domains shown)
VH: QVQLQQWGPGLVNPSETLSLTCSVSGGSFATENYYWSWIRQHPGEGLEWIGNIYFSGNSYYNPSLNNRFTISFDTSKNHLSLKLPSVTAADTAVYYCARGTIYFDYSGYRRVDPFHIWGQGTMVIVSS
VL: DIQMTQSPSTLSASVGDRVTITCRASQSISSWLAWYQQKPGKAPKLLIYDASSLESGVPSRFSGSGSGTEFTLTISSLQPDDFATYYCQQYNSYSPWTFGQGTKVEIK
notes: source: Expi293F, transfected
Take B21: the Kd came to 830 nM, the koff came out at 0.00105 s⁻¹ and the kon turned out to be 1270 M⁻¹ s⁻¹.

B22: 0389-YN3_T65R (antibody, V domains shown)
VH: QVQLQQWGPGLVNPSETLSLTCSVSGGSFATENYYWSWIRQHPGEGLEWIGNIYFSGNRYYNPSLNNRFTISFDTSKNHLSLKLPSVTAADTAVYYCARGTIYFDYSGYRRVDPFHIWGQGTMVIVSS
VL: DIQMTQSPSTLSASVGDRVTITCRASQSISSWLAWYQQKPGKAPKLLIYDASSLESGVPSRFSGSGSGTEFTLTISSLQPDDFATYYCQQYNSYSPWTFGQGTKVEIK
notes: source: Expi293F, transfected
With B22, the Kd is 839 nM, the koff is 0.00107 s⁻¹ and the kon stood at 1280 M⁻¹ s⁻¹.

B23: 0376-YN3_T65A (antibody, V domains shown)
VH: QVQLQQWGPGLVNPSETLSLTCSVSGGSFATENYYWSWIRQHPGEGLEWIGNIYFSGNAYYNPSLNNRFTISFDTSKNHLSLKLPSVTAADTAVYYCARGTIYFDYSGYRRVDPFHIWGQGTMVIVSS
VL: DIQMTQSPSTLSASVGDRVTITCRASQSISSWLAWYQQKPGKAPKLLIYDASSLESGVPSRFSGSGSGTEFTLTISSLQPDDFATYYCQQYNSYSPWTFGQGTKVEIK
notes: source: Expi293F, transfected
On to B23, for which the dissociation constant (Kd) was determined as 1.82 nM, the koff is 0.000425 s⁻¹ and the kon stood at 233000 M⁻¹ s⁻¹.

B24: 0384-YN3_T65L (antibody, V domains shown)
VH: QVQLQQWGPGLVNPSETLSLTCSVSGGSFATENYYWSWIRQHPGEGLEWIGNIYFSGNLYYNPSLNNRFTISFDTSKNHLSLKLPSVTAADTAVYYCARGTIYFDYSGYRRVDPFHIWGQGTMVIVSS
VL: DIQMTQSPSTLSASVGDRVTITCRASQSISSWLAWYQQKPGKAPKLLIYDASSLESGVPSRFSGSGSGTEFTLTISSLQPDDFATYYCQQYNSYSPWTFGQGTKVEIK
notes: source: Expi293F, transfected
For B24, binding was characterised by a dissociation constant (Kd) of 4.26 nM, the off-rate constant (koff) stood at 0.000957 s⁻¹ and the kon came out at 225000 M⁻¹ s⁻¹.

B25: 0339-MN3_T65D (antibody, V domains shown)
VH: QVQLQQWGPGLVNPSETLSLTCSVSGGSFATENYYWSWIRQHPGEGLEWIGNIYFSGNDYYNPSLNNRFTISFDTSKNHLSLKLPSVTAADTAVYYCARGTIYFDMSGYRRVDPFHIWGQGTMVIVSS
VL: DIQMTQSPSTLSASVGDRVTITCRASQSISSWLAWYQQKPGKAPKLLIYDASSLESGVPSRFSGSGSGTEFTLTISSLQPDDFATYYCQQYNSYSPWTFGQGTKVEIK
notes: source: Expi293F, transfected
Turning to B25, the Kd came out at 5.95 nM, the koff is 2e-05 s⁻¹ and the kon amounted to 3350 M⁻¹ s⁻¹.

B26: 0355-MN3_T65W (antibody, V domains shown)
VH: QVQLQQWGPGLVNPSETLSLTCSVSGGSFATENYYWSWIRQHPGEGLEWIGNIYFSGNWYYNPSLNNRFTISFDTSKNHLSLKLPSVTAADTAVYYCARGTIYFDMSGYRRVDPFHIWGQGTMVIVSS
VL: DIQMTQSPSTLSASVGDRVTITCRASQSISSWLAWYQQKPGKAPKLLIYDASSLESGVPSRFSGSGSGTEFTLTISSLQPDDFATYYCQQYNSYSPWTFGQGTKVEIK
notes: source: Expi293F, transfected
In turn, B26 came in with a Kd of 0.474 nM, a koff of 0.00041 s⁻¹ and a kon of 865000 M⁻¹ s⁻¹.
